From patent US7255859

Assays:
[1] = biological target: epitope … (98-106) of the haemagglutinin of the human influenza virus (human influenza virus); assay: rounded affinity in the description; antigen not given
[2] = biological target: Bio-C-HA (acetyl-… (ε-biotinoyl)-amide) (human influenza virus); assay: SPR (BIACORE), biotinylated peptide on streptavidin chip, antibody in solution
[3] = biological target: Bio-N-HA (biotinoyl-ε-Aca-…-amide) (human influenza virus); assay: as above
[4] = biological target: Glutathione-S-transferase modified with the HA epitope (GST-HA) (human influenza virus); assay: Western blot of serially diluted GST-HA with antibody-peroxidase conjugate (20 mU/ml); chemiluminescence
[5] = biological target: Glutathione-S-transferase modified with the HA epitope (GST-HA) (human influenza virus); assay: Western blot, 4 ng GST-HA per lane, primary antibody titrated; chemiluminescence
[6] = biological target: Glutathione-S-transferase modified with the HA epitope (GST-HA) (human influenza virus); assay: Western blot of serially diluted GST-HA with antibody-peroxidase conjugate (100 ng/ml); chemiluminescence
[7] = biological target: Green-fluorescent protein modified with the HA epitope (GFP-HA) (human influenza virus) [GFP: P42212]; assay: immunoprecipitation of 50 ng GFP-HA with protein G, then Western blot
[8] = biological target: Glutathione-S-transferase modified with the HA epitope (GST-HA) (human influenza virus); assay: Western blot of serially diluted GST-HA; 0.1 µg/ml 3F10 against 1 µg/ml 12CA5; chemiluminescence

Substance	Ka [1]	Ka [2]	koff [2]	kon [2]	Ka [3]	koff [3]	kon [3]	amount still detected [4]	antibody concentration at which the antibody becomes the limiting factor [5]	detection limit [6]	fold lower antibody quantity to precipitate the antigen against clone 12CA5 [7]	fold higher affinity than 12CA5 and BabCo [1]	antibody concentration at signal saturation [5]	fold lower antibody concentration for comparable signals against clone 12CA5 [5]	fold lower detectable amount of GST-HA against clone 12CA5 [8]
anti-HA BabCo (antibody)	1e+07 M⁻¹	9.3e+06 M⁻¹	0.001 s⁻¹	9500 M⁻¹ s⁻¹	2.3e+07 M⁻¹	0.0005 s⁻¹	12000 M⁻¹ s⁻¹	–	–	–	–	–	–	–	–
peroxidase conjugate of the clone 3F10 (antibody)	–	–	–	–	–	–	–	40 pg GST-HA	–	–	–	–	–	–	–
mAB 12CA5 (antibody)	1e+08 M⁻¹	9.2e+07 M⁻¹	0.00026 s⁻¹	23000 M⁻¹ s⁻¹	2.6e+08 M⁻¹	0.00021 s⁻¹	53000 M⁻¹ s⁻¹	–	< 2000 ng/mL	–	–	–	–	–	–
peroxidase conjugate of the clone 12CA5 (antibody)	–	–	–	–	–	–	–	–	–	1 ng GST-HA	–	–	–	–	–
mAB R 3F10 (antibody)	1e+10 M⁻¹	1.2e+10 M⁻¹	4.8e-05 s⁻¹	590000 M⁻¹ s⁻¹	6.8e+09 M⁻¹	9.1e-05 s⁻¹	620000 M⁻¹ s⁻¹	–	–	–	< 20 fold	30 fold	125 ng/mL	20 fold	30 fold
